Test results published in patent US20150111836.

Biological target: purified recombinant N-terminal His6 tagged HIV-1 HXBII Vif protein (E. coli)

B1: purified recombinant A3G-His6 (human APOBEC3G with C-terminal Myc-His6 tag, expressed in 293T cells) (protein)
chain: MKPHFRNTVERMYRDTFSYNFYNRPILSRRNTVWLCYEVKTKGPSRPPLDAKIFRGQVYSELKYHPEMRFFHWFSKWRKLHRDQEYEVTWYISWSPCTKCTRDMATFLAEDPKVTLTIFVARLYYFWDPDYQEALRSLCQKRDGPRATMKIMNYDEFQHCWSKFVYSQRELFEPWNNLPKYYILLHIMLGEILRHSMDPPTFTFNFNNEPWVRGRHETYLCYEVERMHNDTWVLLNQRRGFLCNQAPHKHGFLEGRHAELCFLDVIPFWKLDLDQDYRVTCFTSWSPCFSCAQEMAKFISKNKHVSLCIFTARIYDDQGRCQEGLRTLAEAGAKISIMTYSEFKHCWDTFVDHQGCPFQPWDGLDEHSQDLSGRLRAILQNQEN
A3G-mediated deamination of the ss-deoxyoligonucleotide substrate: Vif inhibits A3G deaminase activity in a dose-dependent manner
